The target of experiment [1] is T1, cynomolgus monkey beta klotho expressed on cells (cynomolgus monkey (Macaca fascicularis), UniProt Q86Z14 1-1044 (human entry)).
T1 chain: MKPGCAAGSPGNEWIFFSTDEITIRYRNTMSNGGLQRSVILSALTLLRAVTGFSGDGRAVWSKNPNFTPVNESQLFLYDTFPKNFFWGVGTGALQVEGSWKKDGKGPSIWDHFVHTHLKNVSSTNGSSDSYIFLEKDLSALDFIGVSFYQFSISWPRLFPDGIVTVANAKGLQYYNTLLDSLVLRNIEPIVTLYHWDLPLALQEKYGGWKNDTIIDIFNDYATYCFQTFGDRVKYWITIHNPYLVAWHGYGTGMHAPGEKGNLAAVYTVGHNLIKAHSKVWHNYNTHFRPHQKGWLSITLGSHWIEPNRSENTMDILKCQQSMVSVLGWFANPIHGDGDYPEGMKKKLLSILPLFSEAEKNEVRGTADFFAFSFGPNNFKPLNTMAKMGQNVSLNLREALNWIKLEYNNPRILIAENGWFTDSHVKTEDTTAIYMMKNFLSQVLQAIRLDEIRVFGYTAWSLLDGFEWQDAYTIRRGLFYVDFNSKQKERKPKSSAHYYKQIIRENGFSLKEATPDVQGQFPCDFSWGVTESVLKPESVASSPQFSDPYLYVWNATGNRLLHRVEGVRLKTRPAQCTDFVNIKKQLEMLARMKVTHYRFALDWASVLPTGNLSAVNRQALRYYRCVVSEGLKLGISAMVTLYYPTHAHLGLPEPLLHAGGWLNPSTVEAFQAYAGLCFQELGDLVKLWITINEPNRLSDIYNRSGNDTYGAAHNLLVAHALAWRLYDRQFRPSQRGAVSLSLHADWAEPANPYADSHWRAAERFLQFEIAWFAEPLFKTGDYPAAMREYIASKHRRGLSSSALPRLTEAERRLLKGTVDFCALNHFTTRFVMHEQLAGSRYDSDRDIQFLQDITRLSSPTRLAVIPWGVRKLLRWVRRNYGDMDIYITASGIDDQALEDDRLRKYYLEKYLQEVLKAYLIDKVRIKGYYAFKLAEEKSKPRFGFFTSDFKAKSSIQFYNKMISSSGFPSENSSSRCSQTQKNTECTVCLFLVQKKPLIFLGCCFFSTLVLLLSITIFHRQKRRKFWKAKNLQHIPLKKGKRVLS
Nature of the experiment: cell-based or functional assay.

Experiment [2] addresses T2, cynomolgus monkey beta klotho protein (cynomolgus monkey (Macaca fascicularis), UniProt Q86Z14 53-996 (human entry), limits assumed).
T2 construct: Soluble protein injected in Biacore assays; also called Cyno KLB; cyno beta klotho
T2 chain: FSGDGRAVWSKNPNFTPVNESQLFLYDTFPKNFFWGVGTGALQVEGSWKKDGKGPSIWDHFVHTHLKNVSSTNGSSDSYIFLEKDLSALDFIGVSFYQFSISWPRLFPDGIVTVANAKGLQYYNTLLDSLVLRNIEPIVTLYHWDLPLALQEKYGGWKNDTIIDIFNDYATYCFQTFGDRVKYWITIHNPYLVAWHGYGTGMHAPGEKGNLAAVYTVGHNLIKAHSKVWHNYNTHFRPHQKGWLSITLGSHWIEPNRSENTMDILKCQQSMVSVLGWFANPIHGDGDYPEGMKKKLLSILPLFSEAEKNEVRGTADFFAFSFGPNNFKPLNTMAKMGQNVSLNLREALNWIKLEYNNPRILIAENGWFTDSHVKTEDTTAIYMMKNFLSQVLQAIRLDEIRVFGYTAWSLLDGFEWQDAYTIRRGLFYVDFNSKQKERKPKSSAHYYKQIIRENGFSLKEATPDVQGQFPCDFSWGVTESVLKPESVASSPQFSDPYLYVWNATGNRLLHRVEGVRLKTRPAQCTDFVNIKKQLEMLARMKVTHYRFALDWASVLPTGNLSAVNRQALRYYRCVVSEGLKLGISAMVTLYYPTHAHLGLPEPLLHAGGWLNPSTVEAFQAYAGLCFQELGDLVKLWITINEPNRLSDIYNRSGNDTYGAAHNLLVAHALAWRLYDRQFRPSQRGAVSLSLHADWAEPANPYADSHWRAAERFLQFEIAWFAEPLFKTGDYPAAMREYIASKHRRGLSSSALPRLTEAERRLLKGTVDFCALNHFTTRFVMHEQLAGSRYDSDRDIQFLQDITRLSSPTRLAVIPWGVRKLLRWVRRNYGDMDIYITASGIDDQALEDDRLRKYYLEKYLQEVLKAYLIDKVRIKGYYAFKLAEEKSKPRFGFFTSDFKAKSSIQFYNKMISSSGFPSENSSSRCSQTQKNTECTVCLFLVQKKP
Kind of experiment: Biacore SPR; antibody captured on anti-mouse Fc CM5 chip, beta klotho 1.56-25 nM injected, 25 C. The procedure:
Binding affinity measurements were also made in additional Biacore based assays. For example, equilibrium dissociation constant (KD) measurements were carried out with purified antibodies to evaluate their binding to human beta klotho and cyno beta klotho. As mentioned above, anti-mouse Fc antibody (Sigma-Aldrich, St. Louis, Mo.) was immobilized on all four flow cells of a CM5 chip using amine coupling reagents (GE Healthcare LifeSciences, Piscataway, N.J.). Purified antibodies were captured (˜100 RUs) on flow cells 2, 3 and 4 using flow cell 1 as a reference. This was followed by injection of different concentrations of human or cyno beta klotho (1.56 nM to 25 nM, two-fold dilutions in PBS-P buffer) at a flow rate of 70 μL/min and the binding kinetics were evaluated at 25° C.

Changes are numbered by the printed parent chain.

B1: anti-beta klotho monoclonal antibody 3I13 (antibody, V domains shown)
VH: QVQLQQSGPELVKPGASVKISCKTSGYTFTEYTMHWVKQSHGKSLEWIGSFNPDSGGTSYNQKFKGKATLTVDKSSSTAYMELRSLTSEDSAVYYCARDDGYSTRYWYFDVWGAGTTVTVSS
VL: DIQMTQSPASLSASVGETVTITCGASENIYGALNWFQRKQGKSPQLLIYGATILADGMSSRFSGSGSGRQYSLKISSLHPDDVATYYCQNVLSTPYTFGGGTKLEIK
notes: Murine monoclonal antibody from a hybridoma (captured by anti-mouse Fc); also called 3I13 - Alexa488
Turning to B1, in experiment [1], the “HEK293 cynoKLB/R1c reporter assay EC50” value stood at 0.438 nM. Besides, in experiment [2], the affinity, expressed as Kd, was 1.9 nM.

B2: anti-beta klotho monoclonal antibody 2J21 (antibody, V domains shown)
VH: B1 VH with Q1E, T33I, S50N, F51I, N52D, D54N, S55T, S77I, Y80F
VL: B1 VL with A9P, F36Y, I53N
notes: Murine monoclonal antibody from a hybridoma
In the case of B2, the Kd in experiment [2] amounted to 12.2 nM.

B3: anti-beta klotho monoclonal antibody 4A2 (antibody, V domains shown)
VH: B1 VH with Q1E, A16T, H35Y, S50G, D54N, S55Y, T58A, G66D
VL: B1 VL with F36Y, I53N
notes: as for B2
B3 returned a Kd in experiment [2] of 3.2 nM.

For orientation: Kd means the free concentration of one partner at which half of the binding sites on the other are occupied at equilibrium, for simple one-to-one binding.

For the origin of these results see patent publication US20210115133A1 (NGM BIOPHARMACEUTICALS, published 2021).
